Data published in article PMC10140165, “Cryo-EM reveals the membrane-binding phenomenon of EspB, a virulence factor of the mycobacterial type VII secretion system” (The Journal of Biological Chemistry, 2023).
Values joined by “and” are separate entries in the source; they are usually repeats but may differ in a detail not shown here. Equal entries are not always repeated.

Biological target: the molecule itself
Experiment: cryo-EM 2D class averages

B1: EspB_(1–332) (domain or fragment)
chain: MTQSQTVTVDQQEILNRANEVEAPMADPPTDVPITPCELTAAKNAAQQLVLSADNMREYLAAGAKERQRLATSLRNAAKAYGEVDEEAATALDNDGEGTVQAESAGAVGGDSSAELTDTPRVATAGEPNFMDLKEAARKLETGDQGASLAHFADGWNTFNLTLQGDVKRFRGFDNWEGDAATACEASLDQQRQWILHMAKLSAAMAKQAQYVAQLHVWARREHPTYEDIVGLERLYAENPSARDQILPVYAEYQQRSEKVLTEYNNKAALEPVNPPKPPPAIKIDPPPPPQEQGLIPGFLMPPSDGSGVTPGTGMPAAPMVPPTGSPGGGLP
stoichiometry N: 7 and 6
